% inhibition data for 6 molecules are collected here from US20230295313A1.

B1: murine mAb001 (antibody, V domains shown)
VH: QVQLQQPGAELVRPGSSVKLSCKASGYTFTSYWMDWVKQRPGQGLEWIGNIYPSDSKTHYNQKFKDKATLTVDKSSSTAYMQLSSLTSEDSAVYYCARDYYGSIGMDYWGQGTSVTVSS
VL: DIQMTQSPSSLSASLGERVSLTCRASQEISGYLSWLQQKPDGTIKRLIYAASTLDSGVPKRFSGSRSGSDYSLTISSLESEDFADYYCLQYASYPWTFGGGTKLEIK
B2: murine mAb016 (antibody, V domains shown)
VH: B1 VH with K57A, V72I, Y108S
VL: B1 VL with G31D, Y94F
B3: murine mAb048 (antibody, V domains shown)
VH: QVQLQQPGADLVKPGASVKLSCKAYGYTFFSYWMHWVRQRPGQGLEWIGMIHPNSGTTNNNEKFKSKATLTVDKSFSTAYMQLSSLTSEDSAVYYCARGYSNYDFDYWGQGTILTVSS
VL: DIKMTQFPSSMYASLGERVTITCKASQDINTYLIWIQQKPGKSPKTLIYRANRLADGVPSRFSGSGSGQDSSLTISSLEHEDMGIYYCLQYDEFPYTFGGGTKLEIK
B4: murine mAb117 (antibody, V domains shown)
VH: QAYLQQSGAELVRPGASVKMSCKASGYTFTSYNMHWVKQSPRQGLEWVGVFYLGNGDTSYNEKFKGKATLTVDKSSSTAYMQLSSLTSEDSAVYFCARPGGYANWYFDVWGTGTTVTVSS
VL: DIVMTQSQKFMSTSVGDWVSVTCKASQNVGTEVSWYQQKPGQSPNTLIYSASYRHSGVPDRFTGSGSGTEFTLTITNVQSEDLADYFCQQYNSFPLTFGAGTKLDLK
B5: mAb063 (antibody, V domains shown)
VH: EVQLQQSGPELVKPGASVKISCKASGYTFTDYYMNWVKQSHGKSLEWIGHINPNSGSTTYTEKFKDKATLTVDKSSSTAYMELRSLTSDDSAVYYCVRRIGKNWHCDVWGTGTTVTVSS
VL: DIVLTQSPASLAVSLGQRATISCRASESVNFHGTHLMHWYQQKPGQAPKLLIYAASNLDSGVPARFSGSGSETDFTLNIHPVEEEDAATYFCQQSIEDPFTFGSGTYLEIK
B6: murine mAb067 (antibody, V domains shown)
VH: QVKLHQSGAELAKPGASVKMSCKASGYTFNSYWIHWVKQRPGQGLEWIGYNNPTSGYSEYNQKFTDKATLSADKSSSTAYMQLSSLTSEDSAVYYCVREYGDLFAYWGQGTLVTVSA
VL: NIVMTQSPKSMSMSVGERVTLSCKASENVGYSVSWFQQKPDQSPKLLIYGASNRYTGVPDRFTGSGSATDFTLTISTVQAEDLADYHCGQIYIYPYTFGGGTKLEIK

Substitutions are numbered along the chain they refer to.

The target in one assay is biotin-labeled human IL1RAP (human) (UniProt Q9NPH3). Put plainly: competition ELISA; competitor: capture mAb001 coated; biotin-hIL1RAP. On the technique in general: ELISA stands for enzyme-linked immunosorbent assay.
biotin-labeled human IL1RAP (human), sequence (Q9NPH3 21-367 limits assumed): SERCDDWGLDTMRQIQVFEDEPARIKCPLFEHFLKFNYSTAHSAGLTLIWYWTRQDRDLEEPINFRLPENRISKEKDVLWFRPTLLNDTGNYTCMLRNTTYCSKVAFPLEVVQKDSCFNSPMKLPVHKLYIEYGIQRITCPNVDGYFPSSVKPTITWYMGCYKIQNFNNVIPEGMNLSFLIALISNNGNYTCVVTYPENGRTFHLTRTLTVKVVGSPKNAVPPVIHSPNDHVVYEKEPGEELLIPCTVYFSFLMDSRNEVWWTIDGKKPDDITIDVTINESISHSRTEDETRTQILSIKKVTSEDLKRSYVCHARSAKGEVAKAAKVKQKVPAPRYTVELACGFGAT
As a reminder, the % inhibition is the share of the control response that was lost under treatment. A lower % inhibition goes with a response near the control. As to B1, the % inhibition was found to be 93%.

B2: the % inhibition is 95%.

B3 yielded a % inhibition of 95%.

B4 displayed a % inhibition of 93%.

As for B5, the % inhibition was 94%.

Molecule B6 gave a % inhibition of 94%.

A further assay shares this target. The assay is described as follows: competition ELISA; competitor: capture mAb016 coated; biotin-hIL1RAP.
Take B1: the % inhibition was 90%.

With B2, the % inhibition is 94%.

In turn, B3 displayed a % inhibition of 98%.

Molecule B4 had a % inhibition of 98%.

B5 showed a % inhibition of 97%.

B6 showed a % inhibition of 97%.

The target is the same in a further assay. Put plainly: competition ELISA; competitor: capture mAb048 coated; biotin-hIL1RAP.
B1: the % inhibition worked out at 68%.

In the case of B2, the % inhibition amounted to 78%.

Molecule B3 registered a % inhibition of 84%.

Molecule B4 yielded a % inhibition of 83%.

Take B5: the % inhibition was determined as 82%.

Molecule B6 registered a % inhibition of 83%.

Another assay has the same target. Put plainly: competition ELISA; competitor: capture mAb063 coated; biotin-hIL1RAP.
B1 showed a % inhibition of 75%.

B2 displayed a % inhibition of 80%.

Molecule B3 returned a % inhibition of 86%.

The molecule B4 returned a % inhibition of 87%.

B5: the % inhibition worked out at 96%.

For B6, the % inhibition was 72%.

Another assay shares this target. Put plainly: competition ELISA; competitor: capture mAb067 coated; biotin-hIL1RAP.
On to B1, for which the % inhibition was found to be 76%.

In the case of B2, the % inhibition stood at 76%.

Molecule B3 gave a % inhibition of 90%.

As to B4, the % inhibition stood at 86%.

As to B5, the % inhibition was determined as 87%.

B6 displayed a % inhibition of 87%.

For the next assay the target is unchanged. The assay is described as follows: competition ELISA; competitor: capture mAb117 coated; biotin-hIL1RAP.
As to B1, the % inhibition turned out to be 82%.

Molecule B2 registered a % inhibition of 89%.

Regarding B3, the % inhibition is 94%.

The molecule B4 had a % inhibition of 95%.

For B5, the % inhibition stood at 92%.

The molecule B6 yielded a % inhibition of 91%.
